# The domain aggregation screens of Martell et al. (2025)
# Assay: soluble fraction after stress (log2 fold change); higher = more stays soluble; pooled small domains, quantitative proteomics
# Details: stress: pH 4
# In short: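 Pooled custom libraries of small protein domains were stressed at pH 4 and then measured by high-throughput quantitative proteomics. The fold change in the amount of each domain that stays soluble after the acid stress serves as a measure of aggregation propensity. Fold changes are given on a log2 scale, and higher values mean more of the domain stayed soluble.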
row,Sequence,soluble fraction (log2)
1,HMRERLPFGFAQSKKVVLLSTESDTPKVLSVNWPSLDLYAELKRVIGRAFLLEIVSEEEFQAQVSDAYQRD,-1.48
2,HMIHSEEIQDHIFVKQLGEVFLRNHINYENIMKSWDDHTNVIKRFRRYPHRNKILNRESTIDEISFLKE,-0.0283
3,HMWNPVLVVRGDFPKDLATTLLKMIFAQKEALNPHILFQNLLRTDNITFRESYPYHSASKTMFRF,-0.421
4,HMVKVSVYPNPAVDRITISGEVKAYAVYDATGKVVMKDTDYRGGAIGVSHLPAGIYIVRTDAGAVTVNK,-0.246
5,HMGIGSTLTDGVRVYASDDEIVVNAPAESDVRIFNAGGAQLYAGRVADVRVAVAKGLYVVTVDGRSTKITV,0.217
6,HMSSPEAAEVQRLLKDGQHVQALKIIDESLARNPKDPQMRFRRGVALSMLDRKNEALAVFQKLVED,-0.0849
7,HMSVRPMVEILRVVGSPSPVWVTWARNRAAWLYETGIRPQQRLRMADGTEVLIRLVGEFAHILVVGG,0.0642
8,HMRTLSAGVAGRLRADILNGLLEPGRRLGMAELTERYGAGMSPVREALSRLVGEGLVQSEGQRGFRVA,0.199
9,HMTTPAAISKIKKLEEAKRLLATTTYSMKEIAVKLKYKSHTHFGMDFKNNTGMTPAEYRKAIKAKREKQMN,0.173
10,HMNPGHAERGKEIVEVFLRNNGELSMREIAEKSNITITQARRRVNKLLDQGIVEATAPVQSRNRKYRIK,0.0708
11,HMGSLPPPKDGTTIYVVKPGDSLWRISGKFFGNPLFWPRLWEINPNIDNPNKIYPGDVISLKP,0.219
12,HMDSTSEILKVIQNIVKKEDPYHPLSDDKISNLLNDLDYQISRRTVAKYRDILTIPSSSKRRKL,-0.0776
13,HMGIAEAKRVIVRTLHDVLGPEADFLTEKIDVAQTAAELRVHAEKYRDMLVDMGKPKKSAAFWEAFEAALP,-0.65
14,HMNSLQNNLKQARTRVGLTQGVLASQAGISRQAYSTLESGSANPSTEVALRLAQALQERVELLFYLPER,-0.609
15,HMNTKHVFIIEQDDEKKRLDIFLVEKLQDSRSFLKKGIVEGWVKVNESVVKPNYKLKQKDQITVIIPP,-0.396
16,HMNKNLQLMINEIKKGLASEDIETRKKSVLMLSRIDAPEIIQVLEPLKDDSSEEIRKISSKIISVLSKKYT,0.332
17,HMSVTVPDVKRMQAEDAKALLSRYRLRSEVIDSVYVDNIPRGAVVEQIPRENSSVKENRIVFLTINSN,-0.546
18,HMKRRSLQVGDIVQVRSLNVKGEVVSIGKNEVVVAVGRLQMRAGFDDLDFKERPKEEREVESV,0.0749
19,HMDRPARDEAQSWLADVLADGPVPTAEIREEAEAAGLAWRTIQRARIALSVEPIRGDGRNAWLWQLPG,0.377
20,HMLRNDEAVMLGRRLLNKHLQAFSVQIKDISHQRIHDLLDELELESLDHLLDDIGLGNRSVFLVAQKLLQ,-1.25
21,HMLEQEDMYGYQMIETLRERSEHSFDLKAGTLYPLLHALEQKGLITARDEASAAGRPRRYYHLTDAG,-1.05
22,HMQTNEAIINQAVQAAEAQNITTRSQAVDALKANGMTEAQARQLAVQRGISYDQLINELFPME,0.108
23,HMPSSFLVKVTADALNIRSGPGVANRITGTIKDKGTYTIVDTKDDWGKLKSGVGWIHLGYTKRLD,0.0923
24,HMNQKTQMTKQILAESLKKLMLHHSFEKITIKDITDAAGFIRPTFYNHFKDKYDLVEWIFTEEI,-0.336
25,HMIISMKKTATKEQIAHVRELIEGMGYKAHMSVGAERVIFGAIGDERGKERLVSLEAQPGVEKVIPIL,≥ 0.43

row,Sequence,soluble fraction (log2)
1,HMEVLPLHQVKLKYAEADTILIALKSAQSMLSPRGQLLADNRSQQIFVYDDEAHTATLIEAIKHLDQPL,-0.32
2,HMLPVFNYQVYRTHGLIYVYAKDNDSFDQIARSMGFKAKQLMKFNEVPEDFPLQAGDIVYLEKKKK,-0.368
3,HMQLTPAQHAILAHALEHSDGKIVWFPDNIKGGARKKVLDGLLNRALITTDGTDWFVAAEGYDAMGR,0.063
4,HMKKRDAEIMLQREFKLTEAIAMVRDRDIQELLPIALYFKVNINQPTAEIRYNLLNIAKSKTQEFIEAFD,-1.03
5,HMGAGLDDLVRKSLHNAGLKADDNVVSWISGNLGSDRMVSRMELEKLVLFVAGQSEITLEDAQAVIGD,-0.374
6,HMAGFGDSLEKMSDAVEALKLLMSTEDARNDQNIQKIARELKDVFNKYRTHLRKSYPDQYDRIKSTL,-0.62
7,HMGVGIEALAVEVDRIRQVLTGGGALSDIQLFSQLKALGEVKTALSSMTDPRARELEKRVAQLLEASLRT,-0.323
8,HMSNFGERLRALRQDRQMTLQQASKVTGVAQSTLSKMENNQLSPTFNLMQKLAIGLGIDMPQLFAPVK,-0.18
9,HMKIPYGELIKLLNAAAPKLQDAQGWMDMEAAGQFIGSRWSYLDYGFKDWPDSFKTVHGLEIQGQRMRLA,-0.306
10,HMASIATLTVKALGGASDVVIRDKDGRIIWADRLPAGQSHRVFGHAPFNVAASHASRVQLSLLGKDVGRV,-0.147
11,HMGDAVSRAYFALADDLLKGELTETVSEVLIRTRYELTSAQLQAVLHRIAQEGWAHKKPGYGWEFSAMLT,-1.39
12,HMSYTWHDMYLLAQEYQKEHGNLIIPRNYKGKNGLNLGYWLYKEKLKYRQGKLAPEKIIALEHIGIVWT,0.22
13,HMRDPLNTGFRQTLKDIVNSLPKNELYSPGVREEYIYPKIGVTSLGMEASMVLNGLISSRRKNIELKEKN,0.179
14,HMVVADFQNYTVKPKENLYSLTKTSGLSQEELVALNPELKNGVQEGMVIKLPAAVKLMAQPE,0.22
15,HMSTSFQVQVSVLDLRIRKEPTVKGQEVGKISKGIHTITETRSADGYTWGKLESGQGWIALEFTTKLD,0.0132
16,HMFPASQPVPTDLNQIVRAGLEVFSGRLEGIDVRVSLEPELPRVNVDPEHFKRIVVNLVDNAAEAMQNS,-0.0189
17,HMDENMQRYNTMEEIKKEFPYAEDTVRKLIAMGAIRGGGKVDANGDPADMDLSRDMLRMMVFNDRAGAYG,-0.761
18,HMESAESRVDLIGMIGEAITDLRPAGTAQFGEERIDVVSESEWITEGSTVKVVSAEGYRHVVRVME,-1.01
19,HMTGQEGLIGAHGVALTRLSNEEGEVKVQGEIWQARSDQEVAKGASIEVVHVDGLVLTVRPQH,0.175
20,HMAVWRIKVNYIPGYGVNIWSSYKNGHFTGKRAMHGETYEVLETKKDQDGNTWYKLDDHQWIEGRYAINAK,-0.88
21,HMHDPLATLTPREHEVMSLMAEGRTNAAIAQALVIGTGAVEKNVTSIFQKLGLDDSGTDHRRVLAVLAWLQ,-1.18
22,HMEAPMPIFWRPQFRIGHDDIDADHRYLILLINTVELVLRFPDDPRNVELALTELRRYAEDHFEREER,0.0123
23,HMGTAVKAPMPGTILKVNVTAGQSVKAGDIMFILEAMKMENEIVAPSDGTVSQVVAAKGSSVATDDVLAYL,-0.0993
24,HMEKPAQDVLASHREWMGEMIKAEHMTAKQVWRLLRERADIGVSYPTVKRYLRAHFQFGGPS,0.00611
25,HMVPPVVRTIYGAGGKMTATFLFPGGYEVDAASGAELPGKYRVESISLDQVVLTDKDGNRVPVGFSSVAPT,-0.161

row,Sequence,soluble fraction (log2)
1,HMDVRKSISDLKALGLSDAAVTVYGTIGNKPVHIDKIVSELGIPVFKVLTALTQLEMKGLVTAMQGRMYVL,-0.168
2,HMGKELTVPDVVGQNYVSAQEKLIAGGFQVEVADSVYDSRYGRGVVVDQNPHKDTRVKPGRLIYVTVNA,0.0611
3,HMRNGGHTVYRNNGSLFIVVRDGDKLESVASEFRVSPKKLIKYNDLDIHSNVKTGDMIYIRPKA,-0.124
4,HMDQAEDVLSIPVDALMRGNQVYIKDDTVTEQQGPIPAGFKAVEVETGLISDSYVEIKSGLSEGDTVYVAE,-0.661
5,HMEAIYKKNKNLIHTVIRDNFPFLIDTADYEDAFQEGSIGLIRAIDRFDDGLEYKFSSYAYTAIRNQIA,-0.165
6,HMSDVVFRINANGLNVSGLANGERVSVYDTTGKLVTTAVSTQDNGTLNLPLKQSGGIYIARTQSGVSFKFT,0.108
7,HMNALNDLESKIFEEVVKAPEIIMNMTIREFASTVHASPTTIVRMTHKLGFSGWNELKTYLQKQKHQIS,-0.0849
8,HMGKLGENIKRIREGMGLSQRQFGELIGKSDSQIWSYENDRTDILASTLYKIAAVANVDFNNLMAGIIP,-1.35
9,HMLAQISDEGAIGAVVARVLDAHPNEVARYHAGEEKVAKFLMGAAMRELRGKGDPAVVQRLLSEGLDARRV,0.294
10,HMYEVVPNMRGLTYNQATAALAAAGLKVELSDSIYDEHTQPGTVLDQSPRPNTKVKPNRVVYLTVNAF,-0.0904
11,HMYAHTPEMEAMNELGLEPPVTLDEIKKTYKTLVKKYHPDHNKEDPEAEEKLKKVNMAYTILKVAYTEFEK,0.0101
12,HMSQESIMPNLVGSTEDEAKAIAVEYGFQLNVISRVNNSQYPAGVIIDQNVDEGVRIKAGYPVGVTIS,-0.0416
13,HMRQDEKTLLYWIGAQVKREGKLIKTSTAQYLVEKTGTDMENLEKELEKLFAYTLDEKEITPAAIDEI,-1.21
14,HMQTYNQLKRGMTEWIQAGQKQKAYELFAGVAGQLSLSSAAGKKQYNELVTILNRAGFGIPLE,≥ 0.43
15,HMNQDQDLSRIKGIGPEMVDRLHAQGVETLEQIAAMQMEQLKKLDQQISGNGKAVREQWAEQAKQLLTT,-0.331
16,HMSDFSNLNLLELNSSELDLLLRRASSQGLTQMDLLKMARSQGLSEADLIKVKGKIDTSESIKR,-0.0416
17,HMNETHANKVYNFLKKKKKPLSAYEILKELASEGISAPTTIYRALNKLVSNGLIHKIESLNAWTV,0.185
18,HMVSIGSQVAKRRRELRLTQQNLAEKMGVSFQAISSWEREEFLPDINKLQKLAAILNTKISYLLEE,-0.538
19,HMDKAGWLPARVRLADYPALKQLAWQVQGVDELTPREALGIYERNWRHLDEAALLPRERNLIDALRLAFG,-0.16
20,HMESFGVAIKRLREAQGWTRADFLRQLGKTGYYMHATTLKRIEEGEQIAKVHEAVIISRLFGVTVEEMG,-1.3
21,HMADLNQTDIDSITKSVGGVEQYKSLMDWAGKTLSQDAIDSFDDLVNTGNKGSIQLAVNGLVAQYQNDN,0.121
22,HMSKHAIQNELEKIEGIGKQTADSLLKEFKSVKKLRTLPLSEIEKVIGKSKATIVFEALHKDK,0.0949
23,HMSMNSWFVEKERDNTRIDKFLNEQMADISRSYIQKLIKDDLVTVDLRPVKANYKVKEGDRVEVTLPEPV,-0.0679
24,HMGDPSSERNIQKSIFILIGEKALSVQDISRSLGMPNDIIDKALISGVERNLWLSSDKGEYYL,-1.04
25,HMSYKFDSLAIILNKLDGKETVNVSSLSDELEVSARTVHRYIGTLQVAGFPIEYDKTKNSYIFSEGYTL,-1.05
